Data: the supplement of paper PMC10567573

B1: MCOLN1 (parent)
chain: EEEDLRRRLKYFFMSPCDKFRAKG

Variants of: B1
Experiment: protein stability index of a GFP-peptide fusion (GPS, HEK-293T) (PSI 1-6); higher = more stable
Conditions: c terminus: a fixed tail appended
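Further: lentivirally expressed fusions sorted by FACS into six bins by GFP to DsRed ratio, PSI derived from sequencing read proportions per bin multiplied by bin number.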

Protein stability index of substitutions, site by site:
R6: H 1.97, W 1.8, G 2.99, I 2, L 1.76, A 3.18, N 3.78, E 3.48, F 1.59, V 2.34, Q 3.04, D 3.28, T 2.66, P 2.11, M 1.42, Y 1.64, C 2.85, K 1.9, S 3.6
F13: V 3.45, P 3.97, Q 3.65, H 3.75, G 3.78, C 3.8, R 3.54, M 2.67, D 3.22, S 3.37, I 3.15, K 3.23, T 3.61, Y 3.81, A 3.88, W 3, L 3.2, E 3.74, N 3.77
F12: N 4.11, R 2.91, E 3.9, A 3.53, W 2.39, Q 3.53, G 3.43, C 3.27, I 2.93, P 3.56, H 2.5, V 2.65, M 2.91, K 2.98, D 3.61, T 3.62, S 3.58, L 3.73, Y 2.69
D18: N 1.77, Q 2.2, I 2.49, C 1.83, K 1.94, L 2.32, P 1.73, G 2.06, W 2.25, S 2.18, H 2.05, R 1.93, Y 2.67, V 2.44, E 1.94, A 1.91, M 2.35, T 1.53
S15: W 2.49, H 2.79, A 2.42, L 2.05, Q 2.84, I 1.82, D 3.4, N 2.62, R 2.91, M 1.94, Y 2.62, K 2.63, P 1.65, G 2.77, C 1.66, T 3.1, E 3.26, V 2, F 2.26
L9: G 3.64, N 3.5, H 3.32, E 4.4, V 3.15, K 2.89, P 3.64, C 3.03, I 1.92, Q 3.7, Y 2.97, F 2.96, T 3.33, S 3.91, M 3.27, D 4.1, R 3.35, A 3.3, W 2.32
R21: C 2.65, D 3.15, K 2.93, H 3.28, L 2.19, E 3.45, A 2.52, P 3.09, V 2.56, N 3.01, T 3.05, G 3.01, W 1.81, M 2.72, I 2.51, S 3.1, Q 3.04, F 2.4, Y 2.54
F20: G 3.04, M 2.77, W 2.21, K 3.58, T 3.45, Y 2.28, I 2.14, C 2.9, A 3.82, H 2.61, Q 3.23, R 3.04, P 3.59, V 3.06, L 3.33, S 3.58, N 3.62, D 3.79
R8: G 2.97, P 3.23, T 2.42, L 2.1, V 2.62, D 3.11, K 2.71, W 2.42, N 3.29, Q 3, M 2.05, F 1.42, Y 1.64, I 1.76, C 1.86, H 2.35, A 2, S 2.67, E 3.21
R7: V 2, N 2.55, I 2.39, Y 2.65, K 2.63, Q 2.52, P 3.33, M 1.55, L 2.29, H 2.73, E 3.33, D 3.01, C 2.38, T 2.65, F 2.44, S 2.82, W 1.91, A 2.35
K10: V 2.32, N 3.21, Q 2.26, M 1.93, Y 1.67, D 3.41, W 2.1, R 2.33, A 2.15, H 2.11, F 1.82, S 2.3, G 2.58, L 2.97, E 2.67, T 2.15, P 2.79, I 1.62, C 2.15
M14: S 2.96, H 2.59, P 3.16, W 3.05, L 2.14, A 3.27, G 3.56, T 2.79, Q 3.04, K 3.14, Y 2.23, I 2.87, V 2.66, F 2.83, C 2.24, D 3.23, E 2.65, R 2.73, N 3.3
K23: A 2.78, C 2.43, D 3.56, E 2.47
Y11: V 2.93, E 3.73, S 2.88, W 1.42, I 1.93, C 2.77, K 2.65, T 2.82, A 2.9, Q 3.25, M 2.79, D 2.87, G 3.2, L 2.23, H 2.46, P 3.33, F 2.88, N 3.23, R 2.38
L5: W 2.91, H 3.31, M 2.32, Q 3.84, K 3.2, P 3.17, N 3.51, S 2.92, I 1.92, Y 2.45, V 3.09, T 3.65, R 3.72
K19: I 1.74, T 3.01, S 2.4, D 2.45, F 2.21, W 1.69, V 2.51, L 2.14, A 2.21, G 2.37, Q 2.73, N 2.48, M 2.27, E 2.94, R 1.55, P 2.66, C 2.33, H 2.65, Y 2.75
C17: H 2.61, N 2.89, F 2.1, V 2.53, E 3.23, I 2.59, K 2.1, W 2.13, R 1.58, P 2.9, M 1.97, L 2.19, T 2.19, S 2.54, Q 3.58, D 3.08, G 2.69, A 2.21
P16: F 2.2, R 2.26, N 2.11, Y 2.39, D 3.12, C 1.84, A 2.12, W 2.19, K 2.61, E 1.87, M 1.78, H 2.09, G 1.92, T 2.68, L 1.7, V 2.12, S 2.81, Q 1.84, I 1.95
A22: N 2.21, I 1.91, W 1.36, Q 2.13, S 2.27, C 1.97, E 2.18, T 2.19, D 2.64, H 2.52, Y 1.88, M 2.13, R 1.95, F 2.29, L 1.85, K 2.5, G 2.67
